Tested on: OmpR-VP64
Assay: Screen of EnvZ variants for kinase and phosphatase activity on OmpR-VP64-driven output
Format: cell-based
Details: FIG. 3B
Excerpt: The well-studied EnvZ-OmpR system was used to develop feedback controllers of the present disclosure, using separate kinase and phosphatase variants of EnvZ, and an OmpR-VP64 fusion protein as an activator for promoting transcription of a reporter protein. Kinase and phosphatase variants of the HK EnvZ through mutation and/or truncation (FIG. 3A). […] However, the phosphatase EnvZ activity was weak compared to the EnvZm2 kinase. To create a stronger phosphatase, a DHp domain of EnvZ was fused to a leucine zipper GCN4 domain, with GCN4 at the N-terminus and EnvZm2 at the C-terminus, to lock the DHp domain of an HK into fixed conformations (FIG. 3C). […]
The phosphatase regulator was further modified to allow tunability by use of a small molecule. […] Expression of both proteins from the same nucleic acid and translation from the same mRNA, such as by separating coding sequences by a 2A motif or open reading frames IRES cassette, ensures maximal coupling of transcription and translation of the two proteins. […]
For quantifying the effects of EnvZ variants and perturbations, fold-changes were calculated by dividing the median output level of each sample by that of the equivalent sample in the absence of the EnvZ variant or perturbation. […]

B1: EnvZm2: kinase+/phosphatase− mutant of EnvZ containing a T247A mutation (SEQ ID NO: 3) (protein)
chain: MRRLRFSPRSSFARTLLLIVTLLFASLVTTYLVVLNFAILPSLQQFNKVLAYEVRMLMTDKLQLEDGTQLVVPPAFRREIYRELGISLYSNEAAEEAGLRWAQHYEFLSHQMAQQLGGPTEVRVEVNKSSPVVWLKTWLSPNIWVRVPLTEIHQGDFSPLFRYTLAIMLLAIGGAWLFIRIQNRPLVDLEHAALQVGKGIIPPPLREYGASEVRSVTRAFNHMAAGVKQLADDRTLLMAGVSHDLRAPLTRIRLATEMMSEQDGYLAESINKDIEECNAIIEQFIDYLRTGQEMPMEMADLNAVLGEVIAAESGYEREIETALYPGSIEVKMHPLSIKRAVANMVVNAARYGNGWIKVSSGTEPNRAWFQVEDDGPGIAPEQRKHLFQPFVRGDSARTISGTGLGLAIVQRIVDNHNGMLELGTSERGGLSIRAWLPVPVTRAQGTTKEG
kinase activity (phosphorylation of OmpR): particularly effective in phosphorylating OmpR

— patent US20240018528A1, “A TUNABLE PHOSPHORYLATION-BASED FEEDBACK CONTROLLER OF MAMMALIAN GENE EXPRESSION” (Massachusetts Institute of Technology, priority 2020, published 2024)
